Experimental data reported in patent publication US20230272113A1.

B1: FL-46 (scFv)
scFv: QVTLKESGPVLVKPTQTLTLTCTFSGFSLSNARMGVSWIRQPPGKCLEWLALIYWNDDKRYSPSLKSRLTITKDTSKNQVVLTMTNMDPVDTATYYCARMVGYGSGWYAYFDYWGQGTLVTVSSGGGGSGGGGSGGGGSDIQMTQSPSSLSASVGDRVTITCRASQGIRNDLGWYQQKPGKAPKRLIYAASSLQSGVPSRFSGSGSGTEFTLTISSLQPEDFATYYCLQHNSYPLTFGCGTKVEIK
B2: FL-49 (scFv)
scFv: QVTLKESGPTLVKPTETLTLTCTVSGFSLNNARMGVSWIRQPPGKCLEWLAHIFSNDEKSYSTSLKNRLTISKDSSKTQVVLTMTNVDPVDTATYYCARIVGYGTGWFGYFDYWGQGTQVTVSSGGGGSGGGGSGGGGSDIQMTQSPSSLSASVGDRVTITCRASQDIRTDLAWYQQKPGKAPKRLIYAASSLQSGVPSRFSGSGSGTEFTLTISSLQPEDFATYYCLQHNRYPLTFGCGTKVDIK
B3: FL-48 (scFv)
scFv: QVTLKESGPMLVKPTETLTLTCTFSGFSLRNARMGVSWIRQPPGKCLEWLAHIFWNDEKSYSTSLKSRLTISKDTSKSQVVLTMTNMDPVDTATYYCARIPYYGSGSYNYGMDVWGQGTTVTVSSGGGGSGGGGSGGGGSDIQMTQSPSSLSASVGDRVTITCRASQGIRNDLGWYQQKPGKAPKRLIYAASSLQSGVPSRFSGSGSGTEFTLTISSLQPEDFATYYCLQHNTYPLTFGCGTKVDIK
B4: FL-50 (scFv)
scFv: QVTLKESGPTLVKPTETLTLTCTVSGFSLSNARMGVSWIRQPPGKCLEWLAHIFSNDEKSYSTSLKSRLTISKDTSKSQVVLTMTNMDPVDTATYYCARIPGYGGNFYYHYYGMDVWGQGTTVTVSSGGGGSGGGGSGGGGSDIQMTQSPSSLSASVGDRVTITCRASQGIRNDLAWYQQKPGKAPKRLIYAASTVQSGVPSRFSGSGSGTEFALTISSLQPEDFATYYCLQHNSFPWTFGCGTKVDIK
B5: FL-43 (scFv)
scFv: QVTLKESGPVLVKPTETLTLTCTVSGFSFRNARMGVSWIRQPPGKCLEWLAHIFSNDEKSYSTSLKSRLTISKDTSKSQVVLTLTNMDPVDTATYFCARMPEYSSGWSGAFDIWGQGTMVTVSSGGGGSGGGGSGGGGSDIQMTQSPSSLSASVGDRVTITCRASQGIRNDLVWYQQKPGKAPKRLIYGTSTLQSGVPSRFSGSGSGTEFTLTISSLQPEDFATYYCLQHNSYPLTFGCGTKVEIK
B6: FL-44 (scFv)
scFv: QVTLKESGPVLVKPTETLTLTCTVSGFSFRNARMGVSWIRQPPGKCLEWLAHIFSNDEKSYSTSLKSRLTISKDTSKSQVVLTLTNMDPVDTATYFCARMPEYSSGWSGAFDIWGQGTMVTVSSGGGGSGGGGSGGGGSDIQMTQSPSSLSASVGDRVTITCRTSQGIRNDLVWYQQKPGKAPKRLIYAASTLQSGVPSRFSGSGSGTEFTLTISSLQPEDFATYFCLQHYSYPLTFGCGTKVEIK
B7: FL-45 (scFv)
scFv: QVTLKESGPALVKPTQTLTLTCTFSGFSLSNARMGVSWIRQPPGKCLEWLAHIFSNDEKSYRTSLKSRLTISKDTSKSQVVLTMTNMDPVDTATYYCARIVGYGSGWYAYFDYWGQGTLVTVSSGGGGSGGGGSGGGGSDIQMTQSPSSLSASVGDRVTITCRASQGIRNDLGWYQQKPGKAPKRLIYAASSLQSGVPSRFSGSGSGTEFTLTISSLQPEDFATYYCLQHNSYPLTFGCGTKVEIK
B8: FL-47 (scFv)
scFv: QVTLKESGPALVKPTQTLTLTCTFSGFSLSNARMGVSWIRQPPGKCLEWLAHIFSNDEKSYSTSLKSRLTISKDTSKSQVVLTMTDMDPEDTATYYCARIVGYGTGWYGFFDYWGQGILVTVSSGGGGSGGGGSGGGGSDIQMTQSPSSLSASVGDRVTITCRTSQGIRNDLGWYQQKPGKAPKRLIYAASSLQSGVPSRFSGSGSGTEFTLTISSLQPEDFATYYCLQHNSYPLTFGCGTKVEIK

Target: human FLT3 on transfected CHO cells (human) (UniProt P36888)
Assay: FACS, scFv on CHO-human FLT3 cells pre-incubated with FLT3 ligand (competitor)

Median [+ligand]/median [w/o ligand]*100, > 75%:
B1
B2
B3
B4
B5
B6
B7
B8
